Values of other authors as cited in patent US6528620B1, “Sid-polyamide fusions: a potent method of regulating gene expression” (University of Utah Research Foundation, priority 1999, dated 2003).

How the values were obtained:
Conditions in all cases: Ayer et al., Cell 80:767-776 (1995); cited from earlier work
PAH1 domain of mSin3A = molecular target: T1, PAH1 domain of mSin3A (Mus musculus, UniProt Q60520)
T1 sequence (Q60520 119-189 limits assumed): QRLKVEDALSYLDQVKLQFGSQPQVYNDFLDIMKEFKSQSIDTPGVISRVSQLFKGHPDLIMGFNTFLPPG

PAH3 domain of mSin3A = molecular target: T2, PAH3 domain of mSin3A (Mus musculus, UniProt Q60520)
T2 sequence (Q60520 457-526 limits assumed): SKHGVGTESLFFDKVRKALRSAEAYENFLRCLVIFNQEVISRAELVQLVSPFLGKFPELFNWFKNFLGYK

PAH4 domain of mSin3A = test system: PAH4 domain of mSin3A
Chain of PAH4 domain of mSin3A (Q60520 889-968 limits assumed): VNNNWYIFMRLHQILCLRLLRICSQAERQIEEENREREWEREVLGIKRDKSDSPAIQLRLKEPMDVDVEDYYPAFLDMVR

B1: Mad1: bHLHZip transcriptional repressor protein of the Mad family (protein)
chain: MAAAVRMNIQMLLEAADYLERREREAEHGYASMLPYNNKDRDALKRRNKSKKNNSSSRSTHNEMEKNRRAHLRLCLEKLKGLVPLGPESSRHTTLSLLTKAKLHIKKLEDCDRKAVHQIDQLQREQRHLKRQLEKLGIERIRMDSIGSTVSSERSDSDREEIDVDVESTDYLTGDLDWSSSSVSDSDERGSMQSLGSDEGYSSTSIKRIKLQDSHKACLGL
modifications: left off: small tags and cut ends
notes: bHLHZip transcriptional repressor protein of the Mad family
no interaction is detected: interaction with PAH1 (PAH1 domain of mSin3A) | interaction with PAH3 (PAH3 domain of mSin3A) | interaction with PAH4 (PAH4 domain of mSin3A)
